Experimental data: patent US20100047253A1 (Amgen, published 2010)

T1: Human IL-13-Mouse IL-13 Helix C (human IL-13 with mouse Helix C, UniProt P35225 35-146, limits assumed)
T1 construct: Expressed and secreted chimeric protein; also called Mo HelixC
T1 chain: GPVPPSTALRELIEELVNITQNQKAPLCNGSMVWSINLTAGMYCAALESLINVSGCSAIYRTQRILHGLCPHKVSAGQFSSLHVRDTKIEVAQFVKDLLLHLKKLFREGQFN

T2: mouse IL-13 (mouse, UniProt P20109 22-131, limits assumed)
T2 construct: also called murine IL-13
T2 sequence (looked up): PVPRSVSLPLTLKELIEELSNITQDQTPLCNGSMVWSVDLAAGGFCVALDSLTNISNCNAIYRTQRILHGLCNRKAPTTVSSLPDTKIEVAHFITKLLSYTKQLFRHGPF

T3: Human IL-13-Mouse IL-13 Helix B (human IL-13 with mouse Helix B, UniProt P35225 35-146, limits assumed)
T3 construct: Expressed and secreted chimeric protein; also called Mo HelixB
T3 chain: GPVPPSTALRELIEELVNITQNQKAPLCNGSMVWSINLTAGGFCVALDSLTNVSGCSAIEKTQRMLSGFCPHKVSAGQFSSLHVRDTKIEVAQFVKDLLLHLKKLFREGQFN


Tests used:
[1] = target: T4, human IL-13 (source not stated for the assay) (human, UniProt P35225 35-146, limits assumed); test: cell-based or functional assay
[2] = target: T5, native human IL-13 (human, UniProt P35225 35-146, limits assumed); test: KinExA, equilibrium in solution
T5 construct: also called hIL-13

[3] = target: T1, Human IL-13-Mouse IL-13 Helix C; test: ELISA on secreted IL-13 chimeric proteins
[4] = target: T2, mouse IL-13; test: epitope mapping with mouse IL-13 chimeric molecules (ELISA)
[5] = target: T6, Recombinant Human IL-13 (R & D 213-IL-005) (human, UniProt P35225 35-146); test: SPR (Biacore 2000), mAb captured on goat anti-human surface, IL-13 (R&D) injected, 1:1 model
T6 construct: also called IL-13 antigen (R&D Systems)
T6 sequence (P35225 35-146 limits assumed): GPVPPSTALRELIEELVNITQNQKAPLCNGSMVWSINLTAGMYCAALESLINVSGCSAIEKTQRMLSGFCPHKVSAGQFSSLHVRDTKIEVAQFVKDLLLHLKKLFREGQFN

[6] = target: T3, Human IL-13-Mouse IL-13 Helix B; test: ELISA on secreted IL-13 chimeric proteins; '*' denotes that the binding was weak in the sandwich ELISA
[7] = target: T4, human IL-13 (source not stated for the …); test: cell-based or functional assay; remark: listed apart in the source
[8] = target: marmoset IL-13 (marmoset, UniProt A0A8I3WT33 35-145); test: KinExA, n-curve analysis
Chain of marmoset IL-13 (A0A8I3WT33 entry or part of it): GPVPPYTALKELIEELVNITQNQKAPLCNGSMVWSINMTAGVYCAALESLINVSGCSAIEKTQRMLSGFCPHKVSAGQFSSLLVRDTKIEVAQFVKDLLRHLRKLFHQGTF

[9] = target: T4, human IL-13 (source not stated for the …); test: cell-based or functional assay; remark: listed apart in the source
[10] = target: T7, native macaque IL-13 (macaque monkey); test: KinExA, equilibrium in solution
T7 construct: also called macaque monkey IL-13
T7 sequence (Q864V6 19-132): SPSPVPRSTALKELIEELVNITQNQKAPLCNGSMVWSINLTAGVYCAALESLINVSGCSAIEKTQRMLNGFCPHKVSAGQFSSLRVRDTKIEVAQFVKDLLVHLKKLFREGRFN

[11] = target: T5, native human IL-13; test: KinExA kinetic, injection method
[12] = target: T5, native human IL-13; test: KinExA kinetic, injection method; koff calculated from kon and KD
[13] = target: T5, native human IL-13; test: KinExA; KD from the equilibrium experiments, printed in the kinetic table (injection method row)
[14] = target: T8, Human IL-13-rabbit Fc fusion protein (human IL-13 fused to rabbit Fc); test: ELISA on plates coated with IL-13RbFc, detection with rabbit anti Hu IgG Fc HRP (paragraph 267 to paragraph 269)
T8 construct: also called IL-13-RbFc; IL-13 Rb Fc
T8 sequence (chain, as listed by the source limits assumed): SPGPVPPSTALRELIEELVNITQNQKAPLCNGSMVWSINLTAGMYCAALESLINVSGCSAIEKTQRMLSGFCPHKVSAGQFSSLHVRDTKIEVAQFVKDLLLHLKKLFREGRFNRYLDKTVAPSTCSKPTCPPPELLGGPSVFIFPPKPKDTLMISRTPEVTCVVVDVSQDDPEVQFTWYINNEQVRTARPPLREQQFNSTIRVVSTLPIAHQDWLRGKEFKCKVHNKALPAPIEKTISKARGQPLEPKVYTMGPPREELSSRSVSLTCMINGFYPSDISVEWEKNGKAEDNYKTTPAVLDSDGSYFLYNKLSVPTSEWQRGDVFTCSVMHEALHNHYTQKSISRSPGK

[15] = target: T3, Human IL-13-Mouse IL-13 Helix B; test: ELISA on secreted IL-13 chimeric proteins

Binder	IC50, IL-13 induced eotaxin release, Average [1]	IC50, IL-13 induced eotaxin release, n = 1 [1]	IC50, IL-13 induced eotaxin release, n = 2 [1]	IC50, IL-13 induced eotaxin release, n = 3 [1]	binding result [3]	binding result [4]	Kd [5]	koff [5]	kon [5]	other results
mAb 713 (antibody, V domains shown) VH: EVQLLESGGGLVQPGGSLRLSCAASGFTFSSYAMSWVRQAPGKGLEWVSAFSGSGGSTYYADSVKGRFTISRDNSKNTLYLQMNSLRAEDTAVYYCVQDGLGPYFYNYGMDVWGQGTTVTVSS VL: SYELTQPPSVSVSPGQTASITCSGDKLGDKYTCWFQQKPGQSPVLVIYHDSKRPSGIPERFSGSNSGDTATLTISGTQAMDEADYYCQAWDSSTYVFGTGTKVTVLG	0.021 nM	0.021 nM	0.021 nM	0.019 nM	no binding	no binding	0.012 nM	3.4e-05 s⁻¹	2.9e+06 M⁻¹ s⁻¹	Kd [2]: 0.0036 nM; binding result [6]: binds
mAb 731 (antibody, V domains shown, also called sc731) VH: EVQLLESGGGLVQPGGSLRLSCAASGFTFSSYAMSWVRQAPGKGLEWVSAFSGSGGSTYYADSVKGRFTISRDNSKNTLYLQMNSLRAEDTAVYYCVQDGLGPYFYNYGMDVWGQGTTVTVSS VL: SYELTQPPSVSVSPGQTASITCSGDKLGDKYACWFQQKPGQSPVLVIYHDSKRPSGIPERFSGSNSGDTATLTISGTQAMDEADYYCQAWDSSTYVFGTGTKVTVLG	0.016 nM	0.011 nM	0.019 nM	0.017 nM	no binding	no binding	0.009 nM	3.5e-05 s⁻¹	3.9e+06 M⁻¹ s⁻¹	EC50, HDLM-2 proliferation assay (3H-thymidine) [7]: 0.18 nM; EC50, L-1236 proliferation assay (3H-thymidine) [7]: 0.0052 nM; IC50, IL-13-induced CD23 expression on whole blood B cells (FACS) [7]: 0.87 nM; Kd [8]: < 0.007 nM; IC50, eotaxin production by HDFa cells, 300 pM IL-13 [9]: 28 pM; IC50, eotaxin production by HDFa cells, 600 pM IL-13 [9]: 56 pM; Kd [2]: 0.0089 nM; Kd [10]: 1.6 nM; kon [11]: 4.7e+06 M⁻¹ s⁻¹; koff [12]: 4.2e-05 s⁻¹; Kd [13]: 0.0089 nM; binding result [6]: binds; binding result [14]: binds
mAb 602 (antibody, V domains shown) VH: EVQLVESGGGLVKPGGSLRLSCAASGFTFSNAWMSWVRQAPGKGLEWVGRIRSKIDGGTINYAAPVKGRFTISRDDSKNTLYLQMNSLKTEDTAVYYCATDQVGAYYGDYYGMDVWGQGTTVTVSS VL: SYELTQPPSVSVSPGQTARITCSGDALPEKYAYWYQQKSGQAPVLVIYEDTKRPSGIPERFSGSSSGTMATLTISGAQVEDEADYYCYSTDSSGNHGVFGGGTKLTVLG	0.066 nM	0.08 nM	0.053 nM	–	binds	no binding	0.172 nM	0.00051 s⁻¹	3e+06 M⁻¹ s⁻¹	binding result [15]: binds
mAb 643 (antibody, V domains shown) VH: EVQLVESGGGLVKPGGSLRLSCAASGFTFSNAWMSWVRQAPGKGLEWVGRIRSEIDGGTTNYAAPVKGRFTISRDDSKNTLYLQMNSLRTEDTAVYYCATDQVGAYYGDYYGMDVWGQGTTVTVSS VL: SYELTQPPSVSVSPGQTARITCSGDALPEKYAYWYQQKSGQAPVLVIYEDSKRPSGIPERFSGSSSGTMATLTISGAQVEDEADYYCHSTDSSGNHGVFGGGTKLTVLG	0.035 nM	0.044 nM	0.028 nM	0.033 nM	binds	no binding	0.066 nM	0.00029 s⁻¹	4.4e+06 M⁻¹ s⁻¹	Kd [2]: 0.013 nM; binding result [15]: binds
mAb 11.18 (antibody, V domains shown) VH: QVQLVESGGGVVQPGRSLRLSCVASGFTFSSYDMHWVRQAPGKGLEWVAVIWYDGSNKYYADSVQGRFTISRDNSKNTLYLQMNSLRAEDTAVYYCTSEDSSGWYDGWFDPWGQGTLVTVSS VL: DIQMTQSPSSLSASVGDRVTITCRASQGISNYLAWYQQKPGKVPKVLIYAASTLQSGVPSRFSGSGSGTDFTLTISSLQPEDVATYYCQKYNSAPFTFGPGTKVDIK	0.245 nM	0.213 nM	0.304 nM	0.217 nM	–	–	–	–	–	–
mAb 157 (antibody, V domains shown) VH: EVQLVESGGGLVKPGGSLRLSCAASGFTFSSYSMNWVRQAPGKGLEWVSYISTSYNYIYYADSVKGRFTISRDNAKNSLYLQMNSLRAEDTAVYYCARDQVGATLDAFDIWGQGTMVTVSS VL: DIQMTQSPSSLSASVGDRVTITCRASQGIGDDLGWYQQKPGKAPKRLIYAASSLQSGVPSRFSGSGSGTEFTLTISSLQPEDFATYYCLQHNSYPFTFGPGTRVDIK	0.258 nM	0.26 nM	0.207 nM	0.306 nM	–	–	–	–	–	–
mAb 176 (antibody, V domains shown) VH: EVQLVESGGGLVKPGGSLRLSCAASGFTFSSYSMNWVRQAPGKGLEWVSYISTSNSYIYYADSVKGRFTISRDNAKNSLYLQMNSLRAEDTAVYYCARDQVGATLDAFDIWGQGTMVTVSS VL: DIQMTQSPSSLSASVGDRVTFTCRASQDITDDLGWYQQKPGKAPKRLIYAASSLQSGVPPRFSGSGSGTEFTLTISSLQPEDFATYYCLQHNSYPFTFGPGTKVDIR	0.233 nM	0.233 nM	–	–	–	–	–	–	–	–
mAb 183 (antibody, V domains shown) VH: EVQLVESGGGLVKPGGSLRLSCAASGFTFSSYSMNWVRQAPGKGLEWVSYISSSYNYIYYGDSVKGRFTISRDNAKNSLYLQMNSLRAEDTAVYYCARDQVGATLDAFDIWGQGTMVTVSS VL: DIQMTQSPSSLSASVGDRVTITCRASQGIGDDLGWYQQKPGKAPKRLIYAASSLQSGVPSRFSGSGSGTEFTLTISSLQPEDFATYYCLQHNSYPFTFGPGTKVDIK	1.44 nM	1.04 nM	1.84 nM	–	–	–	–	–	–	–
mAb 264 (antibody, V domains shown) VH: EVQLVESGGGLVKPGGSLRLSCAASGFTFSSYSMNWVRQAPGKGLEWVSYISTSNSYIYYADSVKGRFTISRDNAKNSLYLQMNSLRAEDTAVYYCARDQVGATLDAFDIWGQGTMVTVSS VL: DIQMTQSPSSLSASVGDRVTFTCRASQDITDDLGWYQQKPGKAPKRLIYAASSLQSGVPSRFSGSGSGTEFTLTISSLQPEDFATYYCLQHNSYPFTFGPGTKVDIR	0.297 nM	0.293 nM	0.313 nM	0.284 nM	–	–	–	–	–	–
mAb 243 (antibody, V domains shown) VH: EVQLVESGGGLVKPGGSLRLSCAASGFTFSSYSMNWVRQAPGKGLEWVSYISTSNSYIYYADSVKGRFTISRDNAKNSLYLQMNSLRAEDTAVYYCARDQVGATLDAFDIWGQGTMVTVSS VL: DIQMTQSPSSLSASVGDRVTFTCRASQDITDDLGWYQQKPGKAPKRLIYAASSLQSGVPSRFSGSGSGTEFTLTISSLQPEDFATYYCLQHNSYPFTFGPGTKVDIR	0.253 nM	0.253 nM	–	–	–	–	–	–	–	–
mAb 356 (antibody, V domains shown) VH: EVQLVESGGGLVKPGGSLRLSCAASGFTFSDYNMHWVRQAPGKGLEWVSSISYSSTYIYYADSVRGRFTISRDNAKNSLYLQMNSLRAEDTAVFYCAREDYYYYGLDVWGQGTTVTVSS VL: DIQMTQSPSSLSASVGDRVTITCRASQDIRNDLGWYQQKPGKAPKRLIYDASSLQSGVPSRFSGSGSGTEFTLTISSLQPEDFAIYYCLQHNSYPWTFGQGTKVEIK	1 nM	1.09 nM	0.913 nM	–	–	–	–	–	–	–
